Test results published in patent publication US20240132578A1.

How the values were obtained:
Test in all cases: cell-based or functional assay
[1] = biological target: HIV-1 Env of isolate 6535.3 (subtype B) (HIV-1)
[2] = biological target: HIV-1 Env of isolate 92BR020 (subtype B) (HIV-1)
[3] = biological target: HIV-1 Env of isolate 93TH305 (subtype B) (HIV-1)
[4] = biological target: HIV-1 Env of isolate APV 13 (subtype B) (HIV-1)
[5] = biological target: HIV-1 Env of isolate APV 6 (subtype B) (HIV-1)
[6] = biological target: HIV-1 Env of isolate APV_17 (subtype B) (HIV-1)
[7] = biological target: HIV-1 Env of isolate MGRM-G-001 (subtype G), on pseudovirus (HIV-1)
[8] = biological target: HIV-1 Env of isolate MGRM-G-004 (subtype G), on pseudovirus (HIV-1)
[9] = biological target: HIV-1 Env of isolate MGRM-G-006 (subtype G), on pseudovirus (HIV-1)
[10] = biological target: HIV-1 Env of isolate MGRM-G-009 (subtype G), on pseudovirus (HIV-1)
[11] = biological target: HIV-1 Env of isolate MGRM-G-011 (subtype G), on pseudovirus (HIV-1)
[12] = biological target: HIV-1 Env of isolate MGRM-G-013 (subtype G), on pseudovirus (HIV-1)
[13] = biological target: HIV-1 Env of isolate MGRM-G-014 (subtype G), on pseudovirus (HIV-1)
[14] = biological target: HIV-1 Env of isolate MGRM-G-015 (subtype G), on pseudovirus (HIV-1)
[15] = biological target: HIV-1 Env of isolate MGRM-G-016 (subtype G), on pseudovirus (HIV-1)
[16] = biological target: HIV-1 Env of isolate MGRM-G-017 (subtype G), on pseudovirus (HIV-1)
[17] = biological target: HIV-1 Env of isolate MGRM-G-019 (subtype G), on pseudovirus (HIV-1)
[18] = biological target: HIV-1 Env of isolate MGRM-G-024 (subtype G), on pseudovirus (HIV-1)
[19] = biological target: HIV-1 Env of isolate MGRM-G-025 (subtype G), on pseudovirus (HIV-1)
[20] = biological target: HIV-1 Env of isolate MGRM-G-027 (subtype G), on pseudovirus (HIV-1)
[21] = biological target: HIV-1 Env of isolate MGRM-G-028 (subtype G), on pseudovirus (HIV-1)
[22] = biological target: HIV-1 JR-CSF Env D474A (HIV-1 JR-CSF) (UniProt P20871)
[23] = biological target: aMLV envelope, on pseudovirus (negative control)
[24] = biological target: HIV-1 JR-CSF Env G471A (HIV-1 JR-CSF) (UniProt P20871)
[25] = biological target: HIV-1 Env of isolate 93MW959 (subtype C) (HIV-1)
[26] = biological target: HIV-1 Env of isolate 97ZA012 (subtype C) (HIV-1)
[27] = biological target: HIV-1 Env of isolate 98IN022 (subtype C) (HIV-1)
[28] = biological target: HIV-1 Env of isolate MGRM-C-001 (subtype C) (HIV-1)
[29] = biological target: HIV-1 Env of isolate MGRM-C-002 (subtype C) (HIV-1)
[30] = biological target: HIV-1 Env of isolate MGRM-C-004 (subtype C) (HIV-1)
[31] = biological target: HIV-1 Env of isolate MGRM-C-005 (subtype C) (HIV-1)
[32] = biological target: HIV-1 Env of isolate MGRM-C-006 (subtype C) (HIV-1)
[33] = biological target: HIV-1 Env of isolate MGRM-C-007 (subtype C) (HIV-1)
[34] = biological target: HIV-1 Env of isolate MGRM-C-008 (subtype C) (HIV-1)
[35] = biological target: HIV-1 Env of isolate MGRM-C-009 (subtype C) (HIV-1)
[36] = biological target: HIV-1 Env of isolate MGRM-C-010 (subtype C) (HIV-1)
[37] = biological target: HIV-1 Env of isolate MGRM-C-012 (subtype C) (HIV-1)
[38] = biological target: HIV-1 Env of isolate MGRM-C-013 (subtype C) (HIV-1)
[39] = biological target: HIV-1 Env of isolate MGRM-C-014 (subtype C) (HIV-1)
[40] = biological target: HIV-1 Env of isolate MGRM-C-015 (subtype C) (HIV-1)
[41] = biological target: HIV-1 Env of isolate MGRM-C-017 (subtype C) (HIV-1)
[42] = biological target: HIV-1 Env of isolate MGRM-C-019 (subtype C) (HIV-1)
[43] = biological target: HIV-1 Env of isolate MGRM-C-020 (subtype C) (HIV-1)
[44] = biological target: HIV-1 Env of isolate MGRM-C-022 (subtype C) (HIV-1)
[45] = biological target: HIV-1 Env of isolate MGRM-C-023 (subtype C) (HIV-1)
[46] = biological target: HIV-1 Env of isolate MGRM-C-024 (subtype C) (HIV-1)
[47] = biological target: HIV-1 Env of isolate MGRM-C-025 (subtype C) (HIV-1)
[48] = biological target: HIV-1 Env of isolate MGRM-C-026 (subtype C) (HIV-1)
[49] = biological target: HIV-1 Env of isolate MGRM-C-027 (subtype C) (HIV-1)
[50] = biological target: HIV-1 Env of isolate MGRM-C-028 (subtype C) (HIV-1)
[51] = biological target: HIV-1 JR-CSF Env P470A (HIV-1 JR-CSF) (UniProt P20871)
[52] = biological target: HIV-1 JR-CSF Env R480A (HIV-1 JR-CSF) (UniProt P20871)

B1: PGT-130 (antibody, V domains shown)
VH: QVQLQESGPGLVKPAETLSLTCSVSGESINTGHYYWGWVRQVPGKGLEWIGHIHYTTAVLHNPSLKSRLTIKIYTLRNQITLRLSNVTAADTAVYHCVRSGGDILYYYEWQKPHWFSPWGPGIHVTVSS
VL: QSALTQPPSASGSLGQSVTISCNGTSSDIGGWNFVSWYQQFPGRAPRLIIFEVNKRPSGVPGRFSGSKSGNSASLTVSGLQSDDEGQYFCSSLFGRWDVVFGGGTKLTVL
[1]
  IC50 (µg/mL), pseudovirus neutralization: 0.031 µg/mL
[2]
  IC50 (µg/mL), pseudovirus neutralization: 1.4 µg/mL
[3]
  IC50 (µg/mL), pseudovirus neutralization: 0.021 µg/mL
[4]
  IC50 (µg/mL), pseudovirus neutralization: 0.052 µg/mL
[5]
  IC50 (µg/mL), pseudovirus neutralization: > 50 µg/mL
[6]
  IC50 (µg/mL), pseudovirus neutralization: 10.7 µg/mL
[7]
  IC50 (µg/mL), neutralization of pseudovirus: 0.0198 µg/mL
[8]
  IC50 (µg/mL), neutralization of pseudovirus: > 50 µg/mL
[9]
  IC50 (µg/mL), neutralization of pseudovirus: > 50 µg/mL
[10]
  IC50 (µg/mL), neutralization of pseudovirus: > 50 µg/mL
[11]
  IC50 (µg/mL), neutralization of pseudovirus: > 50 µg/mL
[12]
  IC50 (µg/mL), neutralization of pseudovirus: > 50 µg/mL
[13]
  IC50 (µg/mL), neutralization of pseudovirus: 2.23 µg/mL
[14]
  IC50 (µg/mL), neutralization of pseudovirus: > 50 µg/mL
[15]
  IC50 (µg/mL), neutralization of pseudovirus: > 50 µg/mL
[16]
  IC50 (µg/mL), neutralization of pseudovirus: > 50 µg/mL
[17]
  IC50 (µg/mL), neutralization of pseudovirus: 27.9 µg/mL
[18]
  IC50 (µg/mL), neutralization of pseudovirus: 5.84 µg/mL
[19]
  IC50 (µg/mL), neutralization of pseudovirus: 8.45 µg/mL
[20]
  IC50 (µg/mL), neutralization of pseudovirus: 4.14 µg/mL
[21]
  IC50 (µg/mL), neutralization of pseudovirus: 0.074 µg/mL
[22]
  Fold IC50 increase relative to wild-type: 2 fold
[23]
  IC50 (µg/mL), neutralization of pseudovirus: > 50 µg/mL

B2: PGT-135 (antibody, V domains shown)
VH: QLQMQESGPGLVKPSETLSLSCTVSGDSIRGGEWGDKDYHWGWVRHSAGKGLEWIGSIHWRGTTHYKESLRRRVSMSIDTSRNWFSLRLASVTAADTAVYFCARHRHHDVFMLVPIAGWFDVWGPGVQVTVSS
VL: EIVMTQSPDTLSVSPGETVTLSCRASQNINKNLAWYQYKPGQSPRLVIFETYSKIAAFPARFVASGSGTEFTLTINNMQSEDVAVYYCQQYEEWPRTFGQGTKVDIK
[1]
  IC50 (µg/mL), pseudovirus neutralization: > 50 µg/mL
[2]
  IC50 (µg/mL), pseudovirus neutralization: 0.073 µg/mL
[3]
  IC50 (µg/mL), pseudovirus neutralization: > 50 µg/mL
[4]
  IC50 (µg/mL), pseudovirus neutralization: 0.716 µg/mL
[5]
  IC50 (µg/mL), pseudovirus neutralization: > 50 µg/mL
[6]
  IC50 (µg/mL), pseudovirus neutralization: > 50 µg/mL
[7]
  IC50 (µg/mL), neutralization of pseudovirus: 0.393 µg/mL
[8]
  IC50 (µg/mL), neutralization of pseudovirus: > 50 µg/mL
[9]
  IC50 (µg/mL), neutralization of pseudovirus: > 50 µg/mL
[10]
  IC50 (µg/mL), neutralization of pseudovirus: > 50 µg/mL
[11]
  IC50 (µg/mL), neutralization of pseudovirus: > 50 µg/mL
[12]
  IC50 (µg/mL), neutralization of pseudovirus: > 50 µg/mL
[13]
  IC50 (µg/mL), neutralization of pseudovirus: > 50 µg/mL
[14]
  IC50 (µg/mL), neutralization of pseudovirus: > 50 µg/mL
[15]
  IC50 (µg/mL), neutralization of pseudovirus: > 50 µg/mL
[16]
  IC50 (µg/mL), neutralization of pseudovirus: 0.137 µg/mL
[17]
  IC50 (µg/mL), neutralization of pseudovirus: 0.145 µg/mL
[18]
  IC50 (µg/mL), neutralization of pseudovirus: 0.062 µg/mL
[19]
  IC50 (µg/mL), neutralization of pseudovirus: 0.592 µg/mL
[20]
  IC50 (µg/mL), neutralization of pseudovirus: 0.062 µg/mL
[21]
  IC50 (µg/mL), neutralization of pseudovirus: > 50 µg/mL
[24]
  Fold IC50 increase relative to wild-type: 3 fold
[23]
  IC50 (µg/mL), neutralization of pseudovirus: > 50 µg/mL

B3: PGT-126 (antibody, V domains shown)
VH: QPQLQESGPGLVEASETLSLTCTVSGDSTAACDYFWGWVRQPPGKGLEWIGGLSHCAGYYNTGWTYHNPSLKSRLTISLDTPKNQVFLKLNSVTAADTAIYYCARFDGEVLVYHDWPKPAWVDLWGRGTLVTVSS
VL: QSALTQPPSASGSPGQSISISCTGTSNRFVSWYQQHPGKAPKLVIYGVNKRPSGVPDRFSGSKSGNTASLTVSGLQTDDEAVYYCSSLVGNWDVIFGGGTKLTVL
[25]
  IC50 (µg/mL), pseudovirus neutralization: 9.44 µg/mL
[26]
  IC50 (µg/mL), pseudovirus neutralization: 0.042 µg/mL
[27]
  IC50 (µg/mL), pseudovirus neutralization: 0.279 µg/mL
[28]
  IC50 (µg/mL), pseudovirus neutralization: > 50 µg/mL
[29]
  IC50 (µg/mL), pseudovirus neutralization: 0.011 µg/mL
[30]
  IC50 (µg/mL), pseudovirus neutralization: 0.033 µg/mL
[31]
  IC50 (µg/mL), pseudovirus neutralization: 0.298 µg/mL
[32]
  IC50 (µg/mL), pseudovirus neutralization: 0.014 µg/mL
[33]
  IC50 (µg/mL), pseudovirus neutralization: 25.3 µg/mL
[34]
  IC50 (µg/mL), pseudovirus neutralization: 2.12 µg/mL
[35]
  IC50 (µg/mL), pseudovirus neutralization: > 50 µg/mL
[36]
  IC50 (µg/mL), pseudovirus neutralization: > 50 µg/mL
[37]
  IC50 (µg/mL), pseudovirus neutralization: 0.111 µg/mL
[38]
  IC50 (µg/mL), pseudovirus neutralization: > 50 µg/mL
[39]
  IC50 (µg/mL), pseudovirus neutralization: > 50 µg/mL
[40]
  IC50 (µg/mL), pseudovirus neutralization: 3.14 µg/mL
[41]
  IC50 (µg/mL), pseudovirus neutralization: 0.17 µg/mL
[42]
  IC50 (µg/mL), pseudovirus neutralization: 0.005 µg/mL
[43]
  IC50 (µg/mL), pseudovirus neutralization: > 50 µg/mL
[44]
  IC50 (µg/mL), pseudovirus neutralization: 0.96 µg/mL
[45]
  IC50 (µg/mL), pseudovirus neutralization: 0.065 µg/mL
[46]
  IC50 (µg/mL), pseudovirus neutralization: > 50 µg/mL
[47]
  IC50 (µg/mL), pseudovirus neutralization: 0.786 µg/mL
[48]
  IC50 (µg/mL), pseudovirus neutralization: 0.007 µg/mL
[49]
  IC50 (µg/mL), pseudovirus neutralization: 15.6 µg/mL
[50]
  IC50 (µg/mL), pseudovirus neutralization: 0.196 µg/mL
[7]
  IC50 (µg/mL), neutralization of pseudovirus: 0.038 µg/mL
[8]
  IC50 (µg/mL), neutralization of pseudovirus: > 50 µg/mL
[9]
  IC50 (µg/mL), neutralization of pseudovirus: > 50 µg/mL
[10]
  IC50 (µg/mL), neutralization of pseudovirus: > 50 µg/mL
[11]
  IC50 (µg/mL), neutralization of pseudovirus: 7.32 µg/mL
[12]
  IC50 (µg/mL), neutralization of pseudovirus: 48.8 µg/mL
[13]
  IC50 (µg/mL), neutralization of pseudovirus: 0.009 µg/mL
[14]
  IC50 (µg/mL), neutralization of pseudovirus: > 50 µg/mL
[15]
  IC50 (µg/mL), neutralization of pseudovirus: > 50 µg/mL
[16]
  IC50 (µg/mL), neutralization of pseudovirus: > 50 µg/mL
[17]
  IC50 (µg/mL), neutralization of pseudovirus: 0.018 µg/mL
[18]
  IC50 (µg/mL), neutralization of pseudovirus: > 50 µg/mL
[19]
  IC50 (µg/mL), neutralization of pseudovirus: 17.1 µg/mL
[20]
  IC50 (µg/mL), neutralization of pseudovirus: 0.875 µg/mL
[21]
  IC50 (µg/mL), neutralization of pseudovirus: 0.012 µg/mL
[51]
  Fold IC50 increase relative to wild-type: 2.7 fold
[52]
  Fold IC50 increase relative to wild-type: 1.9 fold
[23]
  IC50 (µg/mL), neutralization of pseudovirus: > 50 µg/mL
